Measured values from patent publication US20210107983A1 (Boehringer Ingelheim, published 2021).

T1: Cyno B7H6-His (cynomolgus monkey)
T1 construct: also called CyB7H6; cyB7-H6
T1 chain: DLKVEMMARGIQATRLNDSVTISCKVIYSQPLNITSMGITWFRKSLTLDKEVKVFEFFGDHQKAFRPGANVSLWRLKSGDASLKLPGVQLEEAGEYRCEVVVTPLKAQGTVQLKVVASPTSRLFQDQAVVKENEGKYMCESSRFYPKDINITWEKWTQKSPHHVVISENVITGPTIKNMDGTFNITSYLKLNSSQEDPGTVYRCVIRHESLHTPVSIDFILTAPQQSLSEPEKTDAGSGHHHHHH

B1: B7H6#14/CD3#3 (bispecific antibody, human IgG1, kappa, L234A L235A)
chain 1: DIQMTQSPSSLSASVGDRVTITCKASQNVGKYVAWYQQKPGKAPKSLIYSASNRYDGVPSRFSGSGSGTDFTLTISSLQPEDFATYFCQQYISYPLTFGAGTKLEIKRTVAAPSVFIFPPSDEQLKSGTASVVCLLNNFYPREAKVQWKVDNALQSGNSQESVTEQDSKDSTYSLSSTLTLSKADYEKHKVYACEVTHQGLSSPVTKSFNRGECGGGGSEGKSSGSGSESKSTEGKSSGSGSESKSTGGGGSQVQLVQSGAEVKKPGASVKVSCKASGYTFTNYWMNWMKQAPGQGLEWIGGIYLNGDSTDYNEKFKGKVTMTVDTSTSTVYMELSSLRSEDTAVYYCTRRGDYFGDFWGQGTLVTVSSASTKGPSVFPLAPSSKSTSGGTAALGCLVKDYFPEPVTVSWNSGALTSGVHTFPAVLQSSGLYSLSSVVTVPSSSLGTQTYICNVNHKPSNTKVDKRVEPKSCDKTHTCPPCPAPEAAGGPSVFLFPPKPKDTLMISRTPEVTCVVVDVSHEDPEVKFNWYVDGVEVHNAKTKPREEQYNSTYRVVSVLTVLHQDWLNGKEYKCKVSNKALPAPIEKTISKAKGQPREPQVYTLPPSREEMTKNQVSLWCLVKGFYPSDIAVEWESNGQPENNYKTTPPVLDSDGSFFLYSKLTVDKSRWQQGNVFSCSVMHEALHNHYTQKSLSLSPG
chain 2: not shown
notes: scFab-Fc heterodimer
B2: B7H6#14/CD3#5 (bispecific antibody, human IgG1, kappa, L234A L235A)
chain 1: DIQMTQSPSSLSASVGDRVTITCKASQNVGKYVAWYQQKPGKAPKSLIYSASNRYDGVPSRFSGSGSGTDFTLTISSLQPEDFATYFCQQYISYPLTFGAGTKLEIKRTVAAPSVFIFPPSDEQLKSGTASVVCLLNNFYPREAKVQWKVDNALQSGNSQESVTEQDSKDSTYSLSSTLTLSKADYEKHKVYACEVTHQGLSSPVTKSFNRGECGGGGSEGKSSGSGSESKSTEGKSSGSGSESKSTGGGGSQVQLVQSGAEVKKPGASVKVSCKASGYTFTNYWMNWMKQAPGQGLEWIGGIYLNGDSTDYNEKFKGKVTMTVDTSTSTVYMELSSLRSEDTAVYYCTRRGDYFGDFWGQGTLVTVSSASTKGPSVFPLAPSSKSTSGGTAALGCLVKDYFPEPVTVSWNSGALTSGVHTFPAVLQSSGLYSLSSVVTVPSSSLGTQTYICNVNHKPSNTKVDKRVEPKSCDKTHTCPPCPAPEAAGGPSVFLFPPKPKDTLMISRTPEVTCVVVDVSHEDPEVKFNWYVDGVEVHNAKTKPREEQYNSTYRVVSVLTVLHQDWLNGKEYKCKVSNKALPAPIEKTISKAKGQPREPQVYTLPPSREEMTKNQVSLWCLVKGFYPSDIAVEWESNGQPENNYKTTPPVLDSDGSFFLYSKLTVDKSRWQQGNVFSCSVMHEALHNHYTQKSLSLSPG
chain 2: not shown
notes: scFab-Fc heterodimer
B3: B7H6#14/CD3#6 (bispecific antibody, human IgG1, kappa, L234A L235A)
chain 1: DIQMTQSPSSLSASVGDRVTITCKASQNVGKYVAWYQQKPGKAPKSLIYSASNRYDGVPSRFSGSGSGTDFTLTISSLQPEDFATYFCQQYISYPLTFGAGTKLEIKRTVAAPSVFIFPPSDEQLKSGTASVVCLLNNFYPREAKVQWKVDNALQSGNSQESVTEQDSKDSTYSLSSTLTLSKADYEKHKVYACEVTHQGLSSPVTKSFNRGECGGGGSEGKSSGSGSESKSTEGKSSGSGSESKSTGGGGSQVQLVQSGAEVKKPGASVKVSCKASGYTFTNYWMNWMKQAPGQGLEWIGGIYLNGDSTDYNEKFKGKVTMTVDTSTSTVYMELSSLRSEDTAVYYCTRRGDYFGDFWGQGTLVTVSSASTKGPSVFPLAPSSKSTSGGTAALGCLVKDYFPEPVTVSWNSGALTSGVHTFPAVLQSSGLYSLSSVVTVPSSSLGTQTYICNVNHKPSNTKVDKRVEPKSCDKTHTCPPCPAPEAAGGPSVFLFPPKPKDTLMISRTPEVTCVVVDVSHEDPEVKFNWYVDGVEVHNAKTKPREEQYNSTYRVVSVLTVLHQDWLNGKEYKCKVSNKALPAPIEKTISKAKGQPREPQVYTLPPSREEMTKNQVSLWCLVKGFYPSDIAVEWESNGQPENNYKTTPPVLDSDGSFFLYSKLTVDKSRWQQGNVFSCSVMHEALHNHYTQKSLSLSPG
chain 2: not shown
notes: scFab-Fc heterodimer
B4: B7H6#24/CD3#1 (bispecific antibody, human IgG1, kappa, lambda, L234A L235A)
chain 1: DIQMTQSPSSLSASVGDRVTITCKASQNVGKYVAWYQQKPGKAPKSLIYSASNRYDAVPSRFSGSGSGTDFTLTISSLQPEDFTTYYCQQYISYPLTFGAGTKLEIKRTVAAPSVFIFPPSDEQLKSGTASVVCLLNNFYPREAKVQWKVDNALQSGNSQESVTEQDSKDSTYSLSSTLTLSKADYEKHKVYACEVTHQGLSSPVTKSFNRGECGGGGSEGKSSGSGSESKSTEGKSSGSGSESKSTGGGGSQVQLVQSGAEVKKPGASVKVSCKASGYTFTNYWMNWMRQAPGQGLEWMGGIYLSGDSTDYNEKFKGRVTMTVDTSTSTVYMELSSLRSEDTAVYYCTRRGDYFGDFWGQGTLVTVSSASTKGPSVFPLAPSSKSTSGGTAALGCLVKDYFPEPVTVSWNSGALTSGVHTFPAVLQSSGLYSLSSVVTVPSSSLGTQTYICNVNHKPSNTKVDKRVEPKSCDKTHTCPPCPAPEAAGGPSVFLFPPKPKDTLMISRTPEVTCVVVDVSHEDPEVKFNWYVDGVEVHNAKTKPREEQYNSTYRVVSVLTVLHQDWLNGKEYKCKVSNKALPAPIEKTISKAKGQPREPQVYTLPPSREEMTKNQVSLWCLVKGFYPSDIAVEWESNGQPENNYKTTPPVLDSDGSFFLYSKLTVDKSRWQQGNVFSCSVMHEALHNHYTQKSLSLSPG
chain 2: EAVVTQEPSLTVSPGGTVTLTCRSSTGAVTTSNYANWVQEKPGQLPRGLIGGTNKRAPWVPARFSGSLLGGKAALTLSGAQPEDEAEYFCALWYSNLWVFGGGTKLTVLGQPKAAPSVTLFPPSSEELQANKATLVCLISDFYPGAVKVAWKADGSPVNTGVETTTPSKQSNNKYAASSYLSLTPEQWKSHRSYSCQVTHEGSTVEKTVAPAECSGGGGSEGKSSGSGSESKSTEGKSSGSGSESKSTGGGGSEVQLVESGGGLVQPGGSLKLSCAASGFTFNTYAMNWVRQAPGKGLEWVARIRSKYNNYATYYADSVKDRFTISRDDSKNTAYLQMNNLKTEDTAVYYCVRHGNFGNSYVSWFAYWGQGTLVTVSAASTKGPSVFPLAPSSKSTSGGTAALGCLVKDYFPEPVTVSWNSGALTSGVHTFPAVLQSSGLYSLSSVVTVPSSSLGTQTYICNVNHKPSNTKVDKRVEPKSCDKTHTCPPCPAPEAAGGPSVFLFPPKPKDTLMISRTPEVTCVVVDVSHEDPEVKFNWYVDGVEVHNAKTKPREEQYNSTYRVVSVLTVLHQDWLNGKEYKCKVSNKALPAPIEKTISKAKGQPREPQVYTLPPSREEMTKNQVSLSCAVKGFYPSDIAVEWESNGQPENNYKTTPPVLDSDGSFFLVSKLTVDKSRWQQGNVFSCSVMHEALHNRFTQKSLSLSPG
notes: scFab-Fc heterodimer, one B7H6 chain and one CD3 chain
B5: B7H6#23/CD3#2 (bispecific antibody, human IgG1, kappa, L234A L235A)
chain 1: DIQMTQSPSSLSASVGDRVTITCKASQNVGKYVAWYQQKPGKAPKSLIYSASNRYDAVPSRFSGSGSGTDFTLTISSLQPEDFATYFCQQYISYPLTFGAGTKLEIKRTVAAPSVFIFPPSDEQLKSGTASVVCLLNNFYPREAKVQWKVDNALQSGNSQESVTEQDSKDSTYSLSSTLTLSKADYEKHKVYACEVTHQGLSSPVTKSFNRGECGGGGSEGKSSGSGSESKSTEGKSSGSGSESKSTGGGGSQVQLVQSGAEVKKPGASVKVSCKASGYTFTSYWMNWMKQAPGQGLEWIGGIYLSGESTDYNEKFKGKVTMTVDTSTSTVYMELSSLRSEDTAVYYCTRRGDYFGDFWGQGTLVTVSSASTKGPSVFPLAPSSKSTSGGTAALGCLVKDYFPEPVTVSWNSGALTSGVHTFPAVLQSSGLYSLSSVVTVPSSSLGTQTYICNVNHKPSNTKVDKRVEPKSCDKTHTCPPCPAPEAAGGPSVFLFPPKPKDTLMISRTPEVTCVVVDVSHEDPEVKFNWYVDGVEVHNAKTKPREEQYNSTYRVVSVLTVLHQDWLNGKEYKCKVSNKALPAPIEKTISKAKGQPREPQVYTLPPSREEMTKNQVSLWCLVKGFYPSDIAVEWESNGQPENNYKTTPPVLDSDGSFFLYSKLTVDKSRWQQGNVFSCSVMHEALHNHYTQKSLSLSPG
chain 2: not shown
notes: scFab-Fc heterodimer

Tests used:
Human B7H1 = biological target: T2, Human B7H1 (human, UniProt Q9NZQ7 20-239); assay: SPR, binder captured on Protein A/G, HuB7H1 analyte
T2 construct: also called HuB7H1; huB7-H1
Summary of the method: (§1)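 B7H6/CD3 binder captured (~700 RU) on a Protein A/G CM5 surface in HBS-EP+. Human or cyno B7H6 injected at 0–100 nM and human B7H1 at 0 nM and 1 μM, 300 s association and 1200 s dissociation. Data double-referenced against the reference flow cell and blank.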

Cyno CD3 E+G HuFc-6xHis [1] = biological target: T3, Cyno CD3 E+G HuFc-6xHis (cynomolgus monkey); assay: SPR, CD3E+G-hFc immobilized, binder analyte
T3 construct: also called CyCD3E+G-hFc; cyCD3
Summary of the method: (§2)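 On a ProteOn XPR36, human and cyno CD3E+G-hFc were amine-coupled to a GLM chip at 0.4, 0.2 and 0.1 μg/mL in 10 mM acetate pH 4.5. B7H6/CD3 binding protein (0–100 nM) flowed in HBS-EP+ at 30 μL/min, with 300 s association and 600 s dissociation. Interspot and blank responses were subtracted.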

Human CD3 E+G HuFc-6xHis = biological target: T4, Human CD3 E+G HuFc-6xHis (human); assay: SPR, CD3E+G-hFc immobilized, binder analyte
T4 construct: also called HuCD3E+G-hFc; huCD3
Summary of the method: as §2

Cyno CD3 E+G HuFc-6xHis [2] = biological target: T3, Cyno CD3 E+G HuFc-6xHis; assay: ratio of SPR KDs cyno/human
Cyno B7H6-His [3] = biological target: T1, Cyno B7H6-His; assay: ratio of SPR KDs cyno/human
[4] = biological target: T5, trypsin inhibitor from Glycine max soybean (Glycine max (soybean)); assay: SPR, 1 µM binder over immobilized trypsin inhibitor
T5 construct: unrelated negatively charged protein, amine-coupled to the chip
Summary of the method: (§3)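 Non-specific binding tested with samples at 1 μM in HBS-EP at 25 °C, 5 μL/min, over lysozyme or trypsin inhibitor amine-coupled to CM5 chip (3000–5000 RU). Association 10 min, dissociation 15 min.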

Cyno B7H6-His [5] = biological target: T1, Cyno B7H6-His; assay: SPR, binder captured on Protein A/G, B7H6 analyte
Summary of the method: as §1

[6] = biological target: T6, chicken egg white lysozyme (chicken, UniProt P00698 19-147); assay: SPR, 1 µM binder over immobilized lysozyme
T6 construct: unrelated positively charged protein, amine-coupled to the chip; also called Lysozyme (positive)
Summary of the method: as §3

T3 sequence (chain, as listed by the source limits assumed): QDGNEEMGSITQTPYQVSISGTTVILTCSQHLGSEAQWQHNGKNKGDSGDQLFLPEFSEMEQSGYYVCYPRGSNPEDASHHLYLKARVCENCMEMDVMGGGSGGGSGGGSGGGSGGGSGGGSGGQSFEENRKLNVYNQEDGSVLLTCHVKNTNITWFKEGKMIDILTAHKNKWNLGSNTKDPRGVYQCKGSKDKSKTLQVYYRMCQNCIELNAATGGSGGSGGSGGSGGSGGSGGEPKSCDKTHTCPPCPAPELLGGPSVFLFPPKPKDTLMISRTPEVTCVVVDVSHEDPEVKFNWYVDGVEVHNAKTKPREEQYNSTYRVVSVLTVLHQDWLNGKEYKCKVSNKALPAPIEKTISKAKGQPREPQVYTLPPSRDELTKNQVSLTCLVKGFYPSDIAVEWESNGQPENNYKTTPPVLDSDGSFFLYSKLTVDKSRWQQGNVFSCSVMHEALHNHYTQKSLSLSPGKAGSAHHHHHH
T6 sequence (P00698 19-147): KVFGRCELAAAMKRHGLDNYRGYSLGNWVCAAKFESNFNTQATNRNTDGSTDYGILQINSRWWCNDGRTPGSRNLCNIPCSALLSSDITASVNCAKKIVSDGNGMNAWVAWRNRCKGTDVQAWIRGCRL
T2 sequence (Q9NZQ7 other isoform, or with tags, fused parts or gaps limits assumed): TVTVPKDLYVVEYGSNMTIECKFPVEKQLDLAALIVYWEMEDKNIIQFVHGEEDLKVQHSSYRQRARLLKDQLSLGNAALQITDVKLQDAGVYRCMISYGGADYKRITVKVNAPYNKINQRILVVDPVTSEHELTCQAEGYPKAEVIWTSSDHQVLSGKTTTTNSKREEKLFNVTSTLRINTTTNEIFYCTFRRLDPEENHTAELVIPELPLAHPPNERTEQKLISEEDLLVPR
T4 sequence (chain, as listed by the source limits assumed): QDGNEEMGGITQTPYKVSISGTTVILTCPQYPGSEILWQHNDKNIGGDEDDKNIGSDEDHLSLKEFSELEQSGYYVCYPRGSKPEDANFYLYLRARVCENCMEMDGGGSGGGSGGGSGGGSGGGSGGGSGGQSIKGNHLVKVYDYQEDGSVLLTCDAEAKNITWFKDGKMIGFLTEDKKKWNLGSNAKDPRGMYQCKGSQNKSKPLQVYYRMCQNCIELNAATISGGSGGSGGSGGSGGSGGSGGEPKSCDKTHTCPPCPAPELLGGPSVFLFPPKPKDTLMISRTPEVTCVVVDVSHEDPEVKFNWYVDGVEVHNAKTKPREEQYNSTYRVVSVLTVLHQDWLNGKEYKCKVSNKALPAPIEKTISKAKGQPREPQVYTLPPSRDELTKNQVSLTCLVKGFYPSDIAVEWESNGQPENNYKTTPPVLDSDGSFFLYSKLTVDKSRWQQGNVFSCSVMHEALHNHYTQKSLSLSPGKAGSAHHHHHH
T5 sequence (P01070 25-205): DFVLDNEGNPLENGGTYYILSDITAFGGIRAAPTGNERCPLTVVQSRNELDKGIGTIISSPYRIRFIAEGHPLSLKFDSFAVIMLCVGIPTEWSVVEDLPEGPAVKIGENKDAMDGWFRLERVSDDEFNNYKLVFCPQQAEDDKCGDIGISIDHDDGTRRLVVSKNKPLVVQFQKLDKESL

Binder | binding result (Human B7H1) | Kd (Cyno CD3 E+G HuFc-6xHis [1]) [nM] | Kd (Human CD3 E+G HuFc-6xHis) [nM] | cy/hu CD3 (Cyno CD3 E+G HuFc-6xHis [2]) | cy/hu B7-H6 (Cyno B7H6-His [3]) | Non-specific binding (RU) [4] [RU] | Kd (Cyno B7H6-His [5]) [nM] | Non-specific binding (RU) [6] [RU]
B1 | no binding (tested: 1 µM) | 7.1 | 4.8 | 1.5 | 0.9 | 26.4 | 1.1 | 12.4
B2 | no binding (tested: 1 µM) | 5.2 | 4.3 | 1.2 | 1.1 | 110 | 1 | 16.2
B3 | no binding (tested: 1 µM) | 5.7 | 4.1 | 1.4 | 2.1 | 34 | 0.9 | 15.7
B4 | no binding (tested: 1 µM) | – | 7.8 | – | 1.7 | 43.5 | 3.1 | 7.9
B5 | no binding (tested: 1 µM) | 10 | 10.4 | 1 | 1.1 | 47.8 | 2 | 37.8
